This test concerns the target T1, ^35S-IRF3, Q14653.
T1 chain: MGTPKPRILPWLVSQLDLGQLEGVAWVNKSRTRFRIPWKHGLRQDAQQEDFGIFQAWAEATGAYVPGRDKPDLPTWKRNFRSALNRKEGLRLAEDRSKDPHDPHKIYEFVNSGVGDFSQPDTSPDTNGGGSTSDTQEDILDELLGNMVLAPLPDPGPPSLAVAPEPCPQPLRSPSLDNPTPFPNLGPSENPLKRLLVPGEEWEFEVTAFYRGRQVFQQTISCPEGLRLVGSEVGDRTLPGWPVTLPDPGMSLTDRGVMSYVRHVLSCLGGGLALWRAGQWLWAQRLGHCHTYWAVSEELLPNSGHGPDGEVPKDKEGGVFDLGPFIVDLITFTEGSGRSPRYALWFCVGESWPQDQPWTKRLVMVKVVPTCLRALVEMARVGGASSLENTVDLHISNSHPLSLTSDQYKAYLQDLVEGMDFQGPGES
As to the kind of experiment: native gel or EMSA. To be noted: remark: other sources report otherwise. Background: Mobility shift assays separate free from complexed probe on a gel.

B1: ^35S-IRF3, Q14653 1-427 (natural protein)
chain: T1 chain
modifications: here or on the partner: 35S label; 35S label
In general, stoichiometry N refers to a count of units in the complex or per binding partner. As for B1, the stoichiometry N came out at 2.

The values are drawn from publication PMC6778039.
